Measured values taken from paper PMC2582629 (Nucleic Acids Research, 2008).

Biological target: T1, mouse mMLH1 (mouse, UniProt Q9JK91 1-760)
T1 sequence (looked up): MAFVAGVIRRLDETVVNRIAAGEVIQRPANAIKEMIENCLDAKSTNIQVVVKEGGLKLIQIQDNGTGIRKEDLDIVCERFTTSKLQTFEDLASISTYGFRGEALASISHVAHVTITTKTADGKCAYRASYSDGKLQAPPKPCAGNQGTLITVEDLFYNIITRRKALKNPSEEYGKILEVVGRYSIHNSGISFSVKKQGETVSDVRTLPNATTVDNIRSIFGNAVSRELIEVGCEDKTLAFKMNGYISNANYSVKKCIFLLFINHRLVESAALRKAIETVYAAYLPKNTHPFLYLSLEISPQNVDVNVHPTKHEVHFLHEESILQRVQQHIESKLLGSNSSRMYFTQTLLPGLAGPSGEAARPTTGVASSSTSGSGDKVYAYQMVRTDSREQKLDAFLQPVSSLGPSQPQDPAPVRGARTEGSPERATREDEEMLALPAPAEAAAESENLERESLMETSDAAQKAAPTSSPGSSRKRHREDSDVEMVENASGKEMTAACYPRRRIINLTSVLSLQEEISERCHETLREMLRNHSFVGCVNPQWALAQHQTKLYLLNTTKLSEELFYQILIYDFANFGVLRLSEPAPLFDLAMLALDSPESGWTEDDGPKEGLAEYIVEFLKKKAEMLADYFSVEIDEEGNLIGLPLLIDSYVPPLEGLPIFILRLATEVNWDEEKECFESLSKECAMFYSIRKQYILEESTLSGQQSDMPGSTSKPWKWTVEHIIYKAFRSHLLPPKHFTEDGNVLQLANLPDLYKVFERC
Test: pull-down

binding result: binds
B1: GST-hRad9 (natural protein, human, UniProt Q99638 1-391, looked up)
chain: MKCLVTGGNVKVLGKAVHSLSRIGDELYLEPLEDGLSLRTVNSSRSAYACFLFAPLFFQQYQAATPGQDLLRCKILMKSFLSVFRSLAMLEKTVEKCCISLNGRSSRLVVQLHCKFGVRKTHNLSFQDCESLQAVFDPASCPHMLRAPARVLGEAVLPFSPALAEVTLGIGRGRRVILRSYHEEEADSTAKAMVTEMCLGEEDFQQLQAQEGVAITFCLKEFRGLLSFAESANLNLSIHFDAPGRPAIFTIKDSLLDGHFVLATLSDTDSHSQDLGSPERHQPVPQLQAHSTPHPDDFANDDIDSYMIAMETTIGNEGSRVLPSISLSPGPQPPKSPGPHSEEEDEAEPSTVPGTPPPKKFRSLFFGSILAPVRSPQGPSPVLAEDSEGEG
